Read-outs that look alike come from different tables or passages of the source.

For series [1], the target named is Int5 (Int-h/218 mutein) Int-h/218 substitutions (not given),I43A (Bacteriophage lambda) (UniProt P03700). To be noted: attH x attPH, relative to Int-h/218 on attB x attP.
Series [2] has as its target Int1 (Int-h/218 mutein) Int-h/218 substitutions (not given),I43A,H61R (Bacteriophage lambda) (UniProt P03700). To be noted: attH x attPH, relative to Int-h/218 on attB x attP.
Series [3] deals with Int-h/218 (parental lambda integrase mutant) Int-h/218 substitutions (not given) (Bacteriophage lambda) (UniProt P03700). To be noted: attB x attP recombination, real-time PCR; reference activity. For orientation: Quantitative PCR measures a nucleic acid by following its amplification.
Series [4] addresses Int5 (Int-h/218 mutein) Int-h/218 substitutions (not given),I43A (Bacteriophage lambda) (UniProt P03700). Briefly: cell_activity. To be noted: attB x attP GFP reporter in HEK293, relative to Int-h/218.
The target in series [5] is Int1 (Int-h/218 mutein) Int-h/218 substitutions (not given),I43A,H61R (Bacteriophage lambda) (UniProt P03700). Nature of the series: cell_activity. To be noted: attB x attP GFP reporter in HEK293, relative to Int-h/218.

Take “CTGCTTTCTTATACCAAGTGG (double strand) [attH]”: the values for the binding signal in series [1] (9-fold over Int-h/218 on genomic attH (FIG. 4D)) and in series [2] (7-fold over Int-h/218 when translated in vitro (FIG. 4A)) were 100% and 140%, respectively.
For “CTGCTTTTTTATACTAACTTG (double strand) [attB core]”, the binding signal in series [3] stood at 100%; in series [4], 65%; in series [5] it was 50%.
As for “CAGCTTTTTTATACTAAGTTG (double strand) [attP core]”, the binding signal in series [3] turned out to be 100%; in series [4] (attH x attP <1% activity), 65%; in series [5] (attH x attP <1% activity), 50%.
For the sequence “CAGCTTTCTTATACCAAGTTG (double strand) [attPH]”, the results for the binding signal in series [1] and in series [2] were 100% and 140%, respectively.
